Our source for the fold increase of binding in β2SP shRNA cells against control cells values is article PMC3745222.

The assay addresses full-length GST-Smad3 (UniProt P84022). Briefly: pull-down.
UniProt P84022, sequence (P84022 whole entry): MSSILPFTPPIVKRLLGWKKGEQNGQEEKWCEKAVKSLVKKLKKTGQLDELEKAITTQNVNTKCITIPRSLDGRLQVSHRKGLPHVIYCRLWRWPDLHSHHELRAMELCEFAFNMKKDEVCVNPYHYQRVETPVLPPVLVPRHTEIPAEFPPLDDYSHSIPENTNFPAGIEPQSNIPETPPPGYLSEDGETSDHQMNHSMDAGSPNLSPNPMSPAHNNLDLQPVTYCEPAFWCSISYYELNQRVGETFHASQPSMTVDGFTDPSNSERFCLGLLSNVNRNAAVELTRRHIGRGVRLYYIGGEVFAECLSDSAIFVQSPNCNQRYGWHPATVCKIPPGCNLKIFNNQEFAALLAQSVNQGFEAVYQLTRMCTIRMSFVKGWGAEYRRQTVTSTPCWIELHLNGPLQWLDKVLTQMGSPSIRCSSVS

With “intracellular Notch1 (ICN1), the active form of Notch1 (domain or fragment)”, the fold increase of binding in β2SP shRNA cells against control cells came to 2 fold.
